Results reported in article PMC11910319, “Inhibition of L-threonine dehydrogenase from Trypanosoma cruzi reduces glycine and acetate production and interferes with parasite growth and viability” (The Journal of Biological Chemistry, 2024).

How the values were obtained:
[1] = molecular target: T1, T. cruzi L-threonine dehydrogenase (TcTDH) (Trypanosoma cruzi, UniProt Q4CU39); experiment: recombinant enzyme, diaphorase/resazurin coupled fluorescence assay; Ki by direct NADH fluorescence (Ki-Thr […], Ki-NAD+[…]); assay type: biochemical
T1 construct: gene Tc00.1047053507923.10; recombinant TcTDH, codon-optimized gene in pET28a, His-tag purified
T1 sequence (Q4CU39 1-332): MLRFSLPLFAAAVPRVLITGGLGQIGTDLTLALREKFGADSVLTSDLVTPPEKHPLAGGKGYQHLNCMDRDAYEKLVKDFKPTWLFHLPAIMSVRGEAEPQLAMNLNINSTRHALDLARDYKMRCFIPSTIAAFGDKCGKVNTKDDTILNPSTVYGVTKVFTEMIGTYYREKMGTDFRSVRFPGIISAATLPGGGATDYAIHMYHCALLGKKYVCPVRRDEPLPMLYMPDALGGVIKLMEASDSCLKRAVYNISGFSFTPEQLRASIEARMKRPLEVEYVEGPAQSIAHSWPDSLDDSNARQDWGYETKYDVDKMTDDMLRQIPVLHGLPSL

[2] = molecular target: Trypanosoma cruzi L-threonine dehydrogenase (TcTDH), recombinant wild type (Trypanosoma cruzi (CL Brener Esmeraldo-like strain)); experiment: SEC; data not shown; quaternary structure in solution
purified protein = substrate: C[C@@H](O)[C@H](N)C(=O)O; experiment: purified protein; assay type: biochemical, Trypanosoma cruzi; conditions: NAD+; K+ ([…] KCl)

CCOc1ccc(NC(=O)/C=C/c2ccc(CC)o2)cc1 [TCMDC-143160]
IC50 [1]: 3.5 µM

Trypanosoma cruzi L-threonine dehydrogenase (TcTDH), recombinant wild type (enzyme)
stoichiometry N [2]: 2

B1: T. cruzi L-threonine dehydrogenase (TcTDH) (Trypanosoma cruzi strain CL Brener) (protein)
chain: MLRFSLPLFAAAVPRVLITGGLGQIGTDLTLALREKFGADSVLTSDLVTPPEKHPLAGGKGYQHLNCMDRDAYEKLVKDFKPTWLFHLPAIMSVRGEAEPQLAMNLNINSTRHALDLARDYKMRCFIPSTIAAFGDKCGKVNTKDDTILNPSTVYGVTKVFTEMIGTYYREKMGTDFRSVRFPGIISAATLPGGGATDYAIHMYHCALLGKKYVCPVRRDEPLPMLYMPDALGGVIKLMEASDSCLKRAVYNISGFSFTPEQLRASIEARMKRPLEVEYVEGPAQSIAHSWPDSLDDSNARQDWGYETKYDVDKMTDDMLRQIPVLHGLPSL
notes: recombinant TcTDH
Km (purified protein): 6.6 mM
